# B1: leptin: mouse leptin (R&D Systems), ob gene product, used on PC12 cells at 100 ng/ml (protein)
# chain: VPIQKVQDDTKTLIKTIVTRINDISHTQSVSAKQRVTGLDFIPGLHPILSLSKMDQTLAVYQQVLTSLPSQNVLQIANDLENLRDLLHLLAFSKSCSLPQTSGLQKPESLDGVLEASLYSTEVVALSRLQGSLQDILQQLDVSPEC
# Columns and labels:
# [1] = test system: differentiated PC12-LR8 cells; assay: RDA and Northern blot of leptin-responsive genes in differentiated PC12-LR8 cells; type: cell-based, rat; settings: leptin 24 hours, continued presence of b-NGF and forskolin
# Method: Adherent PC12-LR8 cells were treated with b-NGF and forskolin for 5 days to induce neuronal differentiation. Differentiated cells were treated with leptin (nF/L) for 24 hours, or were left untreated (nF), in the continued presence of b-NGF and forskolin. Non-differentiated cells were treated for 24 hours with leptin and forskolin (F/L) or with forskolin alone (F). Hybridization was performed with probes as indicated. Mouse b-actin probe was used as a control. Exposure to BioMax film at −80° C. was 3 days for Mx2, 3 hours for peripherin, 4 days for PAP III and 16 hours for b-actin.
# The search for leptin-regulated genes was also extended to differentiated PC12 cells (FIG. 5). Adherent PC12-LR8 cells were treated with b-NGF and forskolin for 5 days, which led to a growth arrest, the formation of branched neuritic processes and the accumulation of small vesicles. Again, a RDA experiment was performed using mRNAs from differentiated cells treated with leptin for 24 hours, or from untreated cells, both in the continued presence of b-NGF and forskolin.
# For neuronal differentiation, resuspended PC12 were seeded on rat tail collagen (Collaborative Biomedical Products) coated plates at 2-3 10^6 cells/25 cm^2 flask in RMPI 1640 medium with glutamax-I containing 10% heat-inactivated horse serum, 5% iFCS and gentamycin. […]
# PC12 cells = assay: RDA of PC12 cells transiently transfected with pMET7-mLRlo; type: cell-based, rat; settings: leptin-forskolin co-stimulated versus forskolin alone
# Method: To search for genes regulated by leptin in the PC12 cell line, a RDA (representational difference analysis) experiment was performed using a modification of the original method (Hubank and Schatz, 1994). Using this procedure, it is possible to clone amplicons corresponding to transcripts from leptin-forskolin co-stimulated PC12 cells, transiently transfected with pMET7-mLRlo. After three rounds of subtraction/amplification, selectively amplified bands were purified and subcloned in the pCDNA3 or pCR-Blunt vector (Invitrogen). […] Based on this observation, a simple one-tube RT-PCR based procedure was set up to select for PC12 subclones, stably expressing the leptin receptor long isoform (FIG. 2 portion A). One stable clone, PC12-LR8, was chosen for further experiments (FIG. 2 portion B). Individual inserts from the cloned amplicon collection were radiolabeled and leptin-dependent gene regulation was verified and studied in more detail by Northern blot analysis on the PC12-LR8 cell line.
# RDA was used to clone differentially expressed cDNAs from PC12 cells, transiently transfected with the leptin receptor long isoform, or from neuronal differentiated PC12-LR8 cells, which stably express the leptin receptor long isoform. In both cases, cloning was performed using mRNA from cells either stimulated with leptin+forskolin or with forskolin alone. […]
molecule,measurement,setting,value
B1,"regulation of Mx2, Peripherin and PAP III transcripts",[1],up-regulated
same,induction of rat Pancreatitis Associated Protein I (rPAP I) transcript,PC12 cells,strongly induced
